Source: publication doi:10.1101/2023.04.12.536585 (2023)

Columns and labels:
[1] = molecular target: p110γ-p101 complex (human p110γ, porcine p101) (human | porcine (Sus scrofa), UniProt P48736 1-1102; O02696 1-877); experiment: BLI
[2] = molecular target: p110γ-p84 complex (human p110γ, mouse p84) (human | mouse, UniProt P48736 1-1102; Q3U6Q4 1-756); experiment: BLI
Sequence of p110γ-p84 complex (human p110γ, mouse p84) (P48736 whole entry, chain 1 of 2): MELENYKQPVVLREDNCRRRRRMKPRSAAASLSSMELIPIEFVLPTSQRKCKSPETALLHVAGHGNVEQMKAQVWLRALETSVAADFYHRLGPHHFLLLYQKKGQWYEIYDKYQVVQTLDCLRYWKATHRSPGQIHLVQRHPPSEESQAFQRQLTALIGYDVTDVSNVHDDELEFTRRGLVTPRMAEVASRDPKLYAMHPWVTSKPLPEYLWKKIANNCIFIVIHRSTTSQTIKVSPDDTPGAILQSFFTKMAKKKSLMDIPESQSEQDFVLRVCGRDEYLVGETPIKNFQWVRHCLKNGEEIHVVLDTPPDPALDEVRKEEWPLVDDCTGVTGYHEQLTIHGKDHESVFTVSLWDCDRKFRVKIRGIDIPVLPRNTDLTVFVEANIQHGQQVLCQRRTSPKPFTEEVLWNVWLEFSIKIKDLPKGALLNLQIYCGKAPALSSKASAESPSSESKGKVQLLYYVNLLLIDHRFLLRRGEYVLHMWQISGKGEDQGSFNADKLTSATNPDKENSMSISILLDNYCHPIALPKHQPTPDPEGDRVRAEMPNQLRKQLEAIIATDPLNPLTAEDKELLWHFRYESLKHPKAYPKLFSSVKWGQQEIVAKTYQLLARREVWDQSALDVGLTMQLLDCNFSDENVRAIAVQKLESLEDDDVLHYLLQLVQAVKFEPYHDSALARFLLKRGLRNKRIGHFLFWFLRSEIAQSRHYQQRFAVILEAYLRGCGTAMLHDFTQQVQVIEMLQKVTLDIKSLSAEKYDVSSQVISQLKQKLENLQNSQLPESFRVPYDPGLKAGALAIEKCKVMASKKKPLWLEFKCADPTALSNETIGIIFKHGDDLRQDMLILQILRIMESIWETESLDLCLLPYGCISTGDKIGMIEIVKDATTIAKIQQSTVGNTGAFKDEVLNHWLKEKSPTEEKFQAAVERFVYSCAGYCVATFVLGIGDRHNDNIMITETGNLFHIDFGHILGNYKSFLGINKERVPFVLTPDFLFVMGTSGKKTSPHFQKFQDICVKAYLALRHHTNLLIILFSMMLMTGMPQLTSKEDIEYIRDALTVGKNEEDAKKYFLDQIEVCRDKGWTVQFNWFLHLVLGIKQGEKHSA
Sequence of p110γ-p84 complex (human p110γ, mouse p84) (Q3U6Q4 whole entry, chain 2 of 2): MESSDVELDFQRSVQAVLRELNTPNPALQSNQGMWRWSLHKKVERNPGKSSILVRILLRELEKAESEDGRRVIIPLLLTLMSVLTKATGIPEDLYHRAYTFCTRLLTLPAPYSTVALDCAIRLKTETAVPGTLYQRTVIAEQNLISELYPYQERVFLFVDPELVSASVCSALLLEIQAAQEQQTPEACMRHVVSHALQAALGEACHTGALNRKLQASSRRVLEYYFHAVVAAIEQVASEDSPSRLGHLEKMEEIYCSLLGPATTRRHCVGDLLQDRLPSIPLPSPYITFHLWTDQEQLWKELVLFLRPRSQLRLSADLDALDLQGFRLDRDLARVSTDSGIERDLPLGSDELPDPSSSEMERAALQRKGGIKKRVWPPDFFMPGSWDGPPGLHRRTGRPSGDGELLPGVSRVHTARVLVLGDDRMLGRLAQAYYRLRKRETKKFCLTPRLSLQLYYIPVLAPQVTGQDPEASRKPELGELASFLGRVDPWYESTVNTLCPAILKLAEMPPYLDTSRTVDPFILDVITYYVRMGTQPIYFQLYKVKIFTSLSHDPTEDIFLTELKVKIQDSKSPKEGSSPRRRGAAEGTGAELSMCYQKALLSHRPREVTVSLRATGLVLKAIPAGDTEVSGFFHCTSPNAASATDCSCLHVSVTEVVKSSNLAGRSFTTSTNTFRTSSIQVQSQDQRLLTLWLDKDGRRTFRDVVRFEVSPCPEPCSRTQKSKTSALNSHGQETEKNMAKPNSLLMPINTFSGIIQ

Sequence of p110γ-p101 complex (human p110γ, porcine p101) (P48736 whole entry, chain 1 of 2): as the sequence (P48736 whole entry, chain 1 of 2) above
Sequence of p110γ-p101 complex (human p110γ, porcine p101) (O02696 whole entry, chain 2 of 2): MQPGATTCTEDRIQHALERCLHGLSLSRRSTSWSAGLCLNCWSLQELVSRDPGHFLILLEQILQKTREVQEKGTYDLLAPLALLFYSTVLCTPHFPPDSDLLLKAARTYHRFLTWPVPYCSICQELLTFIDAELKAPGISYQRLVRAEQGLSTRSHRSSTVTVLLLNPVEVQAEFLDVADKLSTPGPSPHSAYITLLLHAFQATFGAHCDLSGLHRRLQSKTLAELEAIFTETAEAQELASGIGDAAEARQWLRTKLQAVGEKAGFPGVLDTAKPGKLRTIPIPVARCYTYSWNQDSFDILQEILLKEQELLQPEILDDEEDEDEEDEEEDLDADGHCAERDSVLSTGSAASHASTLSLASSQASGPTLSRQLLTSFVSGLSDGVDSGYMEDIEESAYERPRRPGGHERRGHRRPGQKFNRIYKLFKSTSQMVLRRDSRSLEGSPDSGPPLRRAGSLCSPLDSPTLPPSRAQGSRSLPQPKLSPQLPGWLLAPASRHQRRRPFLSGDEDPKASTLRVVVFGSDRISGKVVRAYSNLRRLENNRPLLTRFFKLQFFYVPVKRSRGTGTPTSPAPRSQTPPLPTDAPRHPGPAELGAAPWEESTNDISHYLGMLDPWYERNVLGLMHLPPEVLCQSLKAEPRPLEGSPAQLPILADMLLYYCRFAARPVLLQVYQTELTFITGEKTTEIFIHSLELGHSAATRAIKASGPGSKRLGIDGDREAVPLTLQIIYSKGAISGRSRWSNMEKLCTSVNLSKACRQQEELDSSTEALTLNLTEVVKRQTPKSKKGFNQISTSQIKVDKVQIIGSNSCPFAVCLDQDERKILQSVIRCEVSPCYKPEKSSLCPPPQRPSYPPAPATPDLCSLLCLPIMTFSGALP

Kd [1]: 3.1 nM
Kd [2]: 3 nM
B1: Nanobody NB7-PIK3CG (VHH)
VHH: QVQLVESGGGLVQPGGSLRLSCAASGSIFSINAMGWYRQAPGKQRELVAHITSGGSTNYADSVKGRFTISRDNAKNTVYLQMNSLKPEDTAVYYCNEAGDPFLGSTWNGPPAFGSWGQGTQVTVSS
